Seven molecules from patent US20240010720A1 (IOMX THERAPEUTICS, published 2024) can be followed below.

T1: His-tagged extracellular domain (ECD) of human IGSF11 (VSIG3) (human, UniProt Q5DX21 23-241)
T1 construct: partly bought (SinoBiological 13094-H08H); also called IGSF11-HIS; HIS-IGSF11; not shown: HIS6 tag
T1 sequence: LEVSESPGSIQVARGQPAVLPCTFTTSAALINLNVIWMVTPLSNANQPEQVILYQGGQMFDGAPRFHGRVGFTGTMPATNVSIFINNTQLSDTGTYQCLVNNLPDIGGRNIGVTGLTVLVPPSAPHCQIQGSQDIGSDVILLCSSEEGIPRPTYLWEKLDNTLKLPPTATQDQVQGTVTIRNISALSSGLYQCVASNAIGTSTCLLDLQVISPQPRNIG

T2: recombinant human IGSF11 (VSIG3) extracellular domain (ECD) (human, UniProt Q5DX21 23-241, biotinylated where captured on streptavidin)
T2 construct: also called biotinylated recombinant ECD-IGSF11; IGSF11 (ECD domain)
T2 sequence: T1 sequence

T3: IGSF11 ECD fused to murine-Fc (human; mouse, UniProt Q5DX21 23-241)
T3 construct: also called Fc-fusion IGSF11 ECD; full-length ECD of IGSF11; not shown: murine Fc
T3 sequence: T1 sequence

B1: B-002 (chain-swapped IgG1) (antibody, V domains shown)
VH: EVQLVESGGGLIQPGGSLRLSCAASGFTVSSNYMSWVRQAPGKGLEWVSVIYSGGSTYYADSVKGRFTISRDNSKNTLYLQMNSLRAEDTAVYYCARGNPYYYGDLQVNFDYWGQGTLVTVSS
VL: QAVVTQEPSLTVSPGGTVTLTCASSTGAVTSGYYPNWFQQKPGQAPRALIYSTSNKHSWTPARFSGSLLGGKAALTLSGVQPEDEAEYYCLLYYGGAWVFGGGTKLTVL
notes: human IgG1 format; also called B2
B2: B-004 (chain-swapped IgG1) (antibody, V domains shown)
VH: B1 VH with V5L, A24V
VL: B1 VL with A48P, E83D, A97D
notes: human IgG1 format; also called B4
B3: B-001 (chain-swapped IgG1) (antibody, V domains shown)
VH: B1 VH with V5L, A24V
VL: B1 VL with G32A, E87D
notes: human IgG1 format; also called B1
B4: A-024 (IgG1 format) (antibody, V domains shown)
VH: QMQLVQSGAEVKKPGSSVKVSCKASGGTFSSYAISWVRQAPGQGLEWMGWISAYNGNTNYAQKLQGRVTMTTDTSTSTAYMELRSLRSDDTAVYYCASLGSYGYTGAFDIWGQGTMATVSS
VL: QSALTQPASVSGSPGQSITISCTGTSSDVGGYNYVSWYQQHPGKAPKLMIYEVSNRPSGVSNRFSGSKSGNTASLTISGLQAEDEADYYCSSYTSSSTLVVFGGGTKLTVL
notes: also called A-024-like ABP
B5: A-037 (IgG1 format) (antibody, V domains shown)
VH: QVQLVQSGAEVKKPGASVKVSCKASGYTFTGYYMHWVRQAPGQGLEWMGWINPNSGNTGYAQKFQGRVTMTRNTSISTAYMELSSLRSEDTAVYYCARGGQQQLVLDDYWGQGTLVTVSS
VL: NFMLTQPHSVSESPGKTVTISCTGSSGSIASNYVQWYQQRPGSAPTTVIYEDNQRPSGVPDRFSGSIDSSSNSASLTISGLKTEDEADYYCQSYDSSNQRVFGGGTKLTVL
notes: human IgG1 format
B6: A-019 (IgG1 format) (antibody, V domains shown)
VH: B5 VH
VL: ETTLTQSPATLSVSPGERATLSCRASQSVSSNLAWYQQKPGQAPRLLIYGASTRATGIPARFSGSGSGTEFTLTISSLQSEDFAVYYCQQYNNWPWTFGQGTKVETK
notes: human IgG1 format
B7: human IGSF11 (VSIG3) on cells (receptor)
chain: LEVSESPGSIQVARGQPAVLPCTFTTSAALINLNVIWMVTPLSNANQPEQVILYQGGQMFDGAPRFHGRVGFTGTMPATNVSIFINNTQLSDTGTYQCLVNNLPDIGGRNIGVTGLTVLVPPSAPHCQIQGSQDIGSDVILLCSSEEGIPRPTYLWEKLDNTLKLPPTATQDQVQGTVTIRNISALSSGLYQCVASNAIGTSTCLLDLQVISPQPRNIGLIAGAIGTGAVIIIFCIALILGAFFYWRSKNKEEEEEEIPNEIREDDLPPKCSSAKAFHTEISSSDNNTLTSSNAYNSRYWSNNPKVHRNTESVSHFSDLGQSFSFHSGNANIPSIYANGTHLVPGQHKTLVVTANRGSSPQVMSRSNGSVSRKPRPPHTHSYTISHATLERIGAVPVMVPAQSRAGSLV

Where a chain is given by its changes, count along the chain named. Like-named read-outs stand apart in the source and are kept apart here. Some results are limits rather than exact numbers.

In assay [1] the target is B7. Description: FACS, IgG1-format antibodies; M579-A2-luc cells (M) treated with scrambled control siRNA (SC). On the technique in general: A flow cytometer gives signals particle by particle.
The target of assay [2] is B7. Description: FACS, HEK cells expressing IGSF11.
The target in assay [3] is B7. The experiment in a line: FACS, IgG1-format antibodies; DMS 273 cells (D) treated with IGSF11 siRNA (KD).
The target in assay [4] is B7. Description: FACS, DMS 273 cells.
The target of assay [5] is B7. The experiment in a line: FACS, IgG1-format antibodies; CL-11 cells (C), a line that does not express IGSF11 (specificity control), scrambled control siRNA (SC).
The target in assay [6] is T1, His-tagged extracellular domain (ECD) …. Description: blocking ELISA: antibody pre-incubated with His-tagged IGSF11 ECD, complexes added to immobilised VSIR-Fc; y axis % remaining IGSF11 binding to VSIR, x axis nM IgG per legend. For orientation: An ELISA detects its analyte on a solid surface through an enzyme-linked reagent.
For assay [7], the target named is B7. Description: FACS, IgG1-format antibodies; CL-11 cells (C), a line that does not express IGSF11 (specificity control), IGSF11 siRNA (KD).
The target in assay [8] is T1, His-tagged extracellular domain (ECD) …. Description: ELISA: IgG1-format antibody titrated on coated His-tagged IGSF11; x axis nM IgG, y axis absorbance per legend.
Assay [9] addresses T2, recombinant human IGSF11 (VSIG3) …. Description: SPR, IgG1.
In assay [10] the target is B7. The experiment in a line: FACS, IgG1-format antibodies; DMS 273 cells (D) treated with scrambled control siRNA (SC).
The target in assay [11] is B7. Description: FACS, IgG1-format antibodies; M579-A2-luc cells (M) treated with IGSF11 siRNA (KD).
The target in assay [12] is T1, His-tagged extracellular domain (ECD) …. The experiment in a line: blocking ELISA: antibody pre-incubated with His-tagged IGSF11 ECD, complexes added to immobilised VSIR-Fc; y axis % remaining IGSF11 binding to VSIR, x axis nM IgG per legend. The source holds these as a separate data set.
For assay [13] the target is unchanged. Description: ELISA EC50 grade, IgG1.
Assay [14] addresses T3, IGSF11 ECD fused to murine-Fc. The experiment in a line: ELISA, IgG.
Source text: (§1) Expi293 cells (ThermoFisher) were transiently transfected with DNA sequences encoding the applicable IGSF11 domain-mFc fusions according to the manufacturer's instructions, and cultured under conditions suitable to the IGSF11 domain fusion. Cell supernatants were harvested 5 days post transfection and the expressed Fc-protein purified via Protein A affinity chromatography (GE Healthcare). IGSF11 domain Fc-fusion proteins were re-buffered into PBS pH7.4. […] The surface was blocked with 2% (w/v) skim milk powder in PBST. After three wash cycles with PBST, a dilution series of IgG-format ABPs was transferred to the immobilized the Fc-fusion IGSF11 ECD or the IGSF11 domains and incubated for 1 h. After removing all unbound antibodies by 3 wash cycles with PBST, bound IgG ABPs were detected with a goat anti-human IgG antibody conjugated with horseradish peroxidase. After three wash cycles with PBST the ELISA was developed with TMB substrate.
For assay [15] the target is unchanged. Description: ELISA: IgG titrated on coated murine-Fc fusion of IGSF11 ECD; x axis IgG nM, y axis absorption per legend.
Source text: as §1
Assay [16] has as its target T2, recombinant human IGSF11 (VSIG3) …. The experiment in a line: SPR, IgG1. This is another data set of the same source. (Surface plasmon resonance follows binding to a sensor surface in real time, without labels.)
The target of assay [17] is T1, His-tagged extracellular domain (ECD) …. Description: ELISA, IgG1.
The target in assay [18] is T4, scFv-Fc-format of antibody A-015.
T4 construct: scFv genetically fused to mouse IgG2A Fc; also called anti-IGSF11 scFv-Fc (mouse IgG2A)
The experiment in a line: FACS on monocytes (CD14 gate) from PBMC of healthy volunteer A, labelled secondary antibody; x axis IGSF11 signal.

T4 sequence (VL, as listed by the source): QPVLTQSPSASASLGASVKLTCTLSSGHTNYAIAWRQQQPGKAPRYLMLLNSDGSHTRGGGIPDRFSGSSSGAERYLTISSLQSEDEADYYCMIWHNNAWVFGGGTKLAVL

With B1, the “percentage binding (FACS heat-map)” value in [1] came out at 70.7%; in [3], 8.68%; in [5], 3%; in assay [7], 4.54%; in assay [10], 80.1%; in assay [11], 2.77%. Besides, the EC50 in [2] is 10 to 50 nM; in [4], > 50 nM. The “IC50 (read off the curve)” value in assay [6] was ~4 nM. Also, in assay [8], the “EC50 (read off the curve)” value was ~0.01 nM. In [9], the Kd lay within 100 to 250 nM.

Take B2: the “IC50 (read off the curve)” value in assay [6] is ~5 nM. Besides, in assay [8], the “EC50 (read off the curve)” value is ~0.02 nM.

Take B3: the EC50 in assay [2] lay in the range of 10 to 50 nM. In addition, the “IC50 (read off the curve)” value in assay [12] is ~2 nM. Also, the Kd in assay [9] was 250 to 500 nM.

Regarding B4, the EC50 is 0.02 to 0.05 nM in assay [13], < 10 nM in [4] and < 1 nM in assay [14]. Besides, the “EC50 (read off the curve)” value in [15] is ~0.4 nM. For the same molecule, in assay [16], the Kd is > 500 nM.

Consider B5, for which the binding result in assay [17] is “binds”.

Consider B6, for which the binding result in assay [17] is “binds”.

Regarding B7, in [18], the binding result is listed as “binds”.

In general, EC50 refers to the midpoint of the concentration-response curve. In general, EC50 (read off the curve) refers to the concentration giving half of the maximal effect. A word on the Kd: it is the free concentration of one partner at which half of the binding sites on the other are occupied at equilibrium, for simple one-to-one binding.
